Experimental data: publication PMC12990809

How the values were obtained:
Assay in all cases: pulldown
Settings in all cases: 20 nM protein, 1.5 uM RNA pool; 20 mM HEPES pH 7.8, 70 mM KCl, 10 mM NaCl, 10% glycerol, 2 mM DTT, 0.1 ug/uL BSA; 30 min, 4 C
[1] = target: T1, SCHCODRAFT_80278 (Schizophyllum commune) (UniProt A0ACF2ERL4)
T1 sequence: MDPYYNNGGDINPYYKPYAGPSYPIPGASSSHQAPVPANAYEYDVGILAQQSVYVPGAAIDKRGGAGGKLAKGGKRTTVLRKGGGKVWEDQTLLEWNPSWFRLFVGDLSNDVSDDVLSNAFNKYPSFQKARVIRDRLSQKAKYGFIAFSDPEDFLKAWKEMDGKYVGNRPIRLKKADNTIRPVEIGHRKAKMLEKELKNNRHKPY

[2] = target: e_gw1.13.00.297.1 (Ostreococcus tauri) (UniProt A0A096P8F1)
e_gw1.13.00.297.1 (Ostreococcus tauri), sequence (A0A096P8F1 entry or part of it): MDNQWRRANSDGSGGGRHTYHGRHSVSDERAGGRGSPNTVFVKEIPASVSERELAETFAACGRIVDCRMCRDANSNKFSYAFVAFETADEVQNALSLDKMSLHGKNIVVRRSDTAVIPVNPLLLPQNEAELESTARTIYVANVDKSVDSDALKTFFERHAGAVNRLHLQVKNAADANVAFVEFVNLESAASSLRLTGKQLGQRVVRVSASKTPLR

[3] = target: T2, LmjF.34.4560 (Leishmania major) (UniProt Q4Q285)
T2 sequence: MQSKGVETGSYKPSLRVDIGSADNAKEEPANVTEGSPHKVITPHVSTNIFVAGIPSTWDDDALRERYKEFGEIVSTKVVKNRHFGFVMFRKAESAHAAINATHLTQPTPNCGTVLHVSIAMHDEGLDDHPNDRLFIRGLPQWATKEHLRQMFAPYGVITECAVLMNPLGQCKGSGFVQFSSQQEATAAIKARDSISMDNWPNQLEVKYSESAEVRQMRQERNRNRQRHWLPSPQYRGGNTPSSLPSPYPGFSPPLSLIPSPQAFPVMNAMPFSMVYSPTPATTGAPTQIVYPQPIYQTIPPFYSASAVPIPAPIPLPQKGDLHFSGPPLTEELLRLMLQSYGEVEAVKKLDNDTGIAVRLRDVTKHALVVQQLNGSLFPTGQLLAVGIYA

[4] = target: estExt_fgenesh1_pg.C_Chr_03.00010087 (Ostreococcus tauri) (UniProt A0A096P7J9)
estExt_fgenesh1_pg.C_Chr_03.00010087 (Ostreococcus tauri), sequence (A0A096P7J9 entry or part of it): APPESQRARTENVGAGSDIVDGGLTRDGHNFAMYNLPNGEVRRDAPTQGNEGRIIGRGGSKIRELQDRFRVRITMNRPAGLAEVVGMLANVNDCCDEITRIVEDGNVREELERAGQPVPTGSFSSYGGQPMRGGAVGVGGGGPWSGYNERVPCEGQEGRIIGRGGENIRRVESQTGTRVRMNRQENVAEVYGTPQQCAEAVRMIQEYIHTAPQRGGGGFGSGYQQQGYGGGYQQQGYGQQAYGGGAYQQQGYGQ

[5] = target: T3, LmjF.25.0080 (Leishmania major) (UniProt Q4QA88)
T3 sequence: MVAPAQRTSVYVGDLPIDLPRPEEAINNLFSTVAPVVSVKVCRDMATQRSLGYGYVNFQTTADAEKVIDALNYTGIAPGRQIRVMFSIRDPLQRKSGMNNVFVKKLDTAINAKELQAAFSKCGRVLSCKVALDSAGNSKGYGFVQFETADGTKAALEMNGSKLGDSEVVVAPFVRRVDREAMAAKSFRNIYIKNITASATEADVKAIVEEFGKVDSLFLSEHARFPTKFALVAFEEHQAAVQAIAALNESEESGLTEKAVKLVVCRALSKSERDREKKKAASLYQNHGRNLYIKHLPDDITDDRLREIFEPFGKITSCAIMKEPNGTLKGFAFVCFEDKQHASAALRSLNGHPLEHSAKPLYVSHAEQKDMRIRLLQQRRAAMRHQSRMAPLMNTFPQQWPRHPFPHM

[6] = target: T4, PK27183.1 (Cannabis sativa) (UniProt A0A7J6I1V8)
T4 sequence: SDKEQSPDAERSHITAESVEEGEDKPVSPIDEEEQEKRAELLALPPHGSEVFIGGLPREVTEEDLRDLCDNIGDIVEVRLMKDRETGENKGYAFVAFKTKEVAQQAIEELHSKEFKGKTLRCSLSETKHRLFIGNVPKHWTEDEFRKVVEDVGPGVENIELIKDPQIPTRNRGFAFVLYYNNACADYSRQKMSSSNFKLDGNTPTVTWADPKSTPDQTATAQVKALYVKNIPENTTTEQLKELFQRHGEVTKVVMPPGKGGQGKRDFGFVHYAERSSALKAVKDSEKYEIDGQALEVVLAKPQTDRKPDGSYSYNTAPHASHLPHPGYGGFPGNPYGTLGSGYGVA

[7] = target: T5, hnrnpa0 (Xenopus tropicalis) (UniProt A0A8J0QIP1)
T5 sequence: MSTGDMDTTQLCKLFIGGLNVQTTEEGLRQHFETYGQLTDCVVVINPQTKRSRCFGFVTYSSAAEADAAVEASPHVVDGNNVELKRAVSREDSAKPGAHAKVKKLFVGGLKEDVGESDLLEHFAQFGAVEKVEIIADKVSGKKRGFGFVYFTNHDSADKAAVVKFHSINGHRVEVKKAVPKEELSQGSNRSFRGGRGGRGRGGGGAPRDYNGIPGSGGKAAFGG

[8] = target: T6, NCU09742 (Neurospora crassa) (UniProt Q7SEI3)
T6 sequence: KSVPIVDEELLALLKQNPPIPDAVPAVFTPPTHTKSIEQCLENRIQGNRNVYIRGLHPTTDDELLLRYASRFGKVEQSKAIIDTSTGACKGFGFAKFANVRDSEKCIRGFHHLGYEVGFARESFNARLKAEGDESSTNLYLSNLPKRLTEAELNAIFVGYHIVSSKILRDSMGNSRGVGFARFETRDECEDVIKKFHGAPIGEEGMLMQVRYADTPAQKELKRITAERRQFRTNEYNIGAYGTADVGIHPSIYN

[9] = target: T7, LmjF.18.0190 (Leishmania major) (UniProt Q4QE23)
T7 sequence: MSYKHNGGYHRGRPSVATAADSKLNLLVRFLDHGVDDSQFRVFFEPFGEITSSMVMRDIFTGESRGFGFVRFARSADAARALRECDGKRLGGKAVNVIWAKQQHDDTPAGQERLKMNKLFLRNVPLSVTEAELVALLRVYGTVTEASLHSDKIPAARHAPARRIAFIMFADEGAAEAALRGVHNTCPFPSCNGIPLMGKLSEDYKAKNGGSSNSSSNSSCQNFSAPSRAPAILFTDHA

Sequence: AACUAC [RNAcompete motif RNCMPT00678]
- binding signal (z-score (mean of top ten 7-mers)) [1]: 13.6

Sequence: AAUAAG [RNAcompete motif RNCMPT00681]
- binding signal (z-score (mean of top ten 7-mers)) [2]: 20.7

Sequence: ACAACU [RNAcompete motif RNCMPT00691]
- binding signal (z-score (mean of top ten 7-mers)) [3]: 18.4

Sequence: ACGCGA [RNAcompete motif RNCMPT00694]
- binding signal (z-score (mean of top ten 7-mers)) [4]: 10.9

Sequence: AGAAAA [RNAcompete motif RNCMPT00688]
- binding signal (z-score (mean of top ten 7-mers)) [5]: 9.16

Sequence: AGACACA [RNAcompete motif RNCMPT00685]
- binding signal (z-score (mean of top ten 7-mers)) [6]: 13.3

Sequence: AUUAGGA [RNAcompete motif RNCMPT00684]
- binding signal (z-score (mean of top ten 7-mers)) [7]: 8.79

Sequence: AUUAUUA [RNAcompete motif RNCMPT00676]
- binding signal (z-score (mean of top ten 7-mers)) [8]: 9.27

Sequence: CUCAUUU [RNAcompete motif RNCMPT00687]
- binding signal (z-score (mean of top ten 7-mers)) [9]: 20.6
